The results in this text go back to paper PMC8536467 (Molecular cell, 2021).

Where no end group is shown, it is not given here. Me2 = dimethyl (dimethylated lysine)

The experiment has as its target Human 53BP1-Tudor (residues 1484-1603) (human, UniProt Q12888 1484-1603). Briefly: ITC.

Chain of Human 53BP1-Tudor (residues 1484-1603) (Q12888 1484-1603): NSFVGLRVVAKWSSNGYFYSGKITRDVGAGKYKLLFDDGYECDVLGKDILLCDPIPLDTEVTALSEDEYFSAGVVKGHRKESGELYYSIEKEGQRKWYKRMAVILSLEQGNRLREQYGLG

With TSRHKK(Me2)LMFK (peptide, UniProt P04637 377-386, looked up) [p53K382me2 peptide (residues 377-386)], the Kd is 8 µM.

Molecule SSHLK(Me2)SKKGQ (peptide, UniProt P04637 366-375, looked up) [p53K370me2 peptide (residues 366-375)] gave a Kd of 52 µM.

One may read the Kd as the concentration at which binding is half-saturated. A lower Kd goes with tighter binding.
